Data set [1] addresses T1, LAQ-1 (Lelliottia amnigena, UniProt A0A8F5JT47).
T1 construct: gene blaLAQ
The data set can be described thus: inhibition of nitrocefin hydrolysis, UV-VIS spectrophotometry. It is filed as biochemical.

The test system of data set [2] is CO[C@@]1(NC(=O)Cc2cccs2)C(=O)N2C(C(=O)O)=C(COC(N)=O)CS[C@@H]21. The data set is described as follows: hydrolysis initial rates, UV-VIS spectrophotometry, Michaelis-Menten fit. It is filed as biochemical, Lelliottia amnigena. To be noted: 10 mM phosphate buffer pH 7.0, 37°C. An excerpt:
(§1) hydrolysis initial rates, UV-VIS spectrophotometry, Michaelis-Menten fit on LAQ-1

Data set [3] concerns CO/N=C(\C(=O)N[C@@H]1C(=O)N2C(C(=O)[O-])=C(C[N+]3(C)CCCC3)CS[C@H]12)c1csc(N)n1. Described as above. The data set is classed as biochemical, Lelliottia amnigena. The note with it: 10 mM phosphate buffer pH 7.0, 37°C.
Excerpt: as §1

Data set [4] concerns CC(C)(O/N=C(\C(=O)N[C@@H]1C(=O)N2C(C(=O)[O-])=C(C[n+]3ccccc3)CS[C@H]12)c1csc(N)n1)C(=O)O. Described as above. It is filed as biochemical, Lelliottia amnigena. To be noted: 10 mM phosphate buffer pH 7.0, 37°C.
Excerpt: as §1

In data set [5] the test system is CC1(C)S[C@@H]2[C@H](NC(=O)[C@H](N)c3ccccc3)C(=O)N2[C@H]1C(=O)O. Described as above. It is filed as biochemical, Lelliottia amnigena. The note with it: 10 mM phosphate buffer pH 7.0, 37°C.
Excerpt: as §1

Data set [6] concerns CCN1CCN(C(=O)N[C@@H](C(=O)N[C@@H]2C(=O)N3[C@@H]2SC(C)(C)[C@@H]3C(=O)O)c2ccccc2)C(=O)C1=O. The description is as above. It is filed as biochemical, Lelliottia amnigena. To be noted: 10 mM phosphate buffer pH 7.0, 37°C.
Excerpt: as §1

The subject of data set [7] is Cc1nnc(SCC2=C(C(=O)O)N3C(=O)[C@@H](NC(=O)Cn4cnnn4)[C@H]3SC2)s1. Described as above. It is filed as biochemical, Lelliottia amnigena. The note with it: 10 mM phosphate buffer pH 7.0, 37°C.
Excerpt: as §1

T1 sequence (A0A8F5JT47 entry or part of it): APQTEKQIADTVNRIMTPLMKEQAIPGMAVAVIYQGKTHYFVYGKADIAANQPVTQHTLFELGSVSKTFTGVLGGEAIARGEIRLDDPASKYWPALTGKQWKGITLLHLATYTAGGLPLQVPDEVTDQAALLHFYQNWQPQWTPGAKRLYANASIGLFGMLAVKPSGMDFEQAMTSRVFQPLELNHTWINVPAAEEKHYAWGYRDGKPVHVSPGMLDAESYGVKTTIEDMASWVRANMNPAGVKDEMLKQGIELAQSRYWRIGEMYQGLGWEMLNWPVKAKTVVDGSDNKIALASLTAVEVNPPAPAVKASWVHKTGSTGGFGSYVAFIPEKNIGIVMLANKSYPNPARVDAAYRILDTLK

One may read the IC50 as the concentration that inhibits the measured activity by half. Higher therefore signals weaker potency. In data set [1], `Nc1nc2c(ncn2[C@@H]2O[C@H](COP(=O)(O)O)[C@@H](O)[C@H]2O)c(=O)[nH]1` [GMP] had an IC50 of 2630 nM.

Compound `NC(=O)[C@@H]1CC[C@@H]2CN1C(=O)N2OS(=O)(=O)O` [avibactam] had an IC50 in data set [1] of 1.45 nM.

In general, Km refers to the concentration of substrate that gives half-maximal velocity. One may read the kcat as the maximal rate divided by the concentration of active sites. In general, kcat/Km refers to the second-order rate constant that governs catalysis at low substrate concentration. Regarding LAQ-1 (Lelliottia amnigena), the Km in data set [2] worked out at 65.4 µM; in data set [3] it was 57.05 µM; in data set [4] it was 140 µM; in data set [5] it was 436.1 µM; in data set [6], 87.56 µM; in data set [7] it was 645 µM. In addition, the kcat in data set [2] turned out to be 1110 s⁻¹; in data set [3], 467 s⁻¹; in data set [4], 642 s⁻¹; in data set [5] it was 9140 s⁻¹; in data set [6] it was 9430 s⁻¹; in data set [7], 25700 s⁻¹. The kcat/Km was 1.69e+07 M⁻¹ s⁻¹ in data set [2]; 8.18e+06 M⁻¹ s⁻¹ in data set [3]; 4.58e+06 M⁻¹ s⁻¹ in data set [4]; 2.1e+07 M⁻¹ s⁻¹ in data set [5]; 1.08e+08 M⁻¹ s⁻¹ in data set [6]; 3.99e+07 M⁻¹ s⁻¹ in data set [7].
